In paper PMC2928010:
Where two headings read alike, the source gives them in different places.

Assays:
[1] = molecular target: RNC–SRP: coumarin-labeled SRP C235 loaded with ribosome–nascent chain complex (E. coli) (UniProt P0AGD7); experiment: FRET or BRET
[2] = molecular target: RNC–SRP: coumarin-labeled SRP C235 loaded with ribosome–nascent chain complex (E. coli) (UniProt P0AGD7); experiment: FRET or BRET; remark: listed apart in the source
[3] = molecular target: acrylodan-labeled FtsY C356 (E. coli) (UniProt P10121); experiment: other fluorescence titration
[4] = molecular target: acrylodan-labeled FtsY C356 (E. coli) (UniProt P10121); experiment: other fluorescence titration; remark: listed apart in the source

In the case of “BODIPY-fluorescein–labeled FtsY C487 (from UniProt P10121 1-497) (receptor)”, the Kd [1] is reported as 68 nM and the Kd [2] is reported as 104 nM.

“signal recognition particle (SRP): Ffh with 4.5S RNA (from UniProt P0AGD7 1-453) (complex)” was tested, and the Kd [3] was 145 nM and the Kd [4] was less than 4 nM.
